Changes are numbered by the printed parent chain. Like-named read-outs stand apart in the source and are kept apart here.

The target in assay [1] is T1, human CD73 on SK-OV-3 cells (human ovarian adenocarcinoma cells) (human, UniProt P21589 27-549).
T1 construct: whole, on cells; also called human CD73 positive cells
T1 sequence (looked up): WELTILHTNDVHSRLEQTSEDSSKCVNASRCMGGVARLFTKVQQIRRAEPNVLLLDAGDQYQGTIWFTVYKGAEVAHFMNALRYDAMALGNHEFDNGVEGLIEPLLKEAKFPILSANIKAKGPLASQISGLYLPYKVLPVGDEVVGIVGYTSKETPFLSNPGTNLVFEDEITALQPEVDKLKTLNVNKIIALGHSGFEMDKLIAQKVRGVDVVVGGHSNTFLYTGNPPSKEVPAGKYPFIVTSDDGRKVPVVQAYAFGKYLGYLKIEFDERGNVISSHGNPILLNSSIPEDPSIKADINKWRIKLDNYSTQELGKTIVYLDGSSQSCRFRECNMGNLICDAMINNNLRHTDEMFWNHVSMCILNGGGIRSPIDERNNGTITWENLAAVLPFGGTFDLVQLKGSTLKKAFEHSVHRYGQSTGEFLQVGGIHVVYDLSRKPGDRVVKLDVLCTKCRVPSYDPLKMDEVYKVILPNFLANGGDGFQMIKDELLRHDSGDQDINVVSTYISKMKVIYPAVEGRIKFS
As to the kind of experiment: flow cytometry on SK-OV-3 cells. (A flow cytometer gives signals particle by particle.)

For assay [2], the target named is T2, recombinant human CD73 protein (human, UniProt P21589 27-547, limits assumed).
T2 construct: Bought recombinant protein; the assays only say recombinant human CD73; also called rhCD73; recombinant hCD73 protein
T2 sequence (looked up): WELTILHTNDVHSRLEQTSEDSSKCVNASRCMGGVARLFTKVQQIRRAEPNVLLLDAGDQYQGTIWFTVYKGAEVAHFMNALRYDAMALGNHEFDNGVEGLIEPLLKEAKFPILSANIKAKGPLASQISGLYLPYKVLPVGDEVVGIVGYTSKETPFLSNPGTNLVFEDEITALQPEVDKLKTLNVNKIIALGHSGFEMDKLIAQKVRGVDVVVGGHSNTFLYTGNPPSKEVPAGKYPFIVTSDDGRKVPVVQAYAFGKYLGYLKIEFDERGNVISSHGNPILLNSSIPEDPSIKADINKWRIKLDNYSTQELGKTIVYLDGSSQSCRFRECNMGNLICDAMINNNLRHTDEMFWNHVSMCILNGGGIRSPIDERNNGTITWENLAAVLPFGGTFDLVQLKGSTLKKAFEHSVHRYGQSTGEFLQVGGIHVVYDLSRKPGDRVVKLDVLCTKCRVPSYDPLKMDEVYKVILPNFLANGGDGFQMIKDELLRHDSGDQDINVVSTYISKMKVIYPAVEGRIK
As to the kind of experiment: ELISA, plate coated with recombinant human CD73 at 3 µg/mL.

For assay [3], the target named is T1, human CD73 on SK-OV-3 cells (human …). As to the kind of experiment: flow cytometry on SK-OV-3 cells, anti-hFc-APC.
Assay [4] addresses T3, recombinant monkey CD73 protein (monkey, UniProt A0A2K5V5U7 27-549).
T3 construct: Monkey species not further named for the recombinant protein (the cell line is called cynoCD73)
T3 sequence: T1 sequence (looked up) with M199T, T350A, V466I
As to the kind of experiment: ELISA, recombinant monkey CD73 coated at 3 ug/mL. The source says: (§1) The combination of antibody and the recombinant monkey CD73 was detected by an ELISA method, and the result is shown in FIG. 8B.
A general note: In an ELISA, binding on a coated surface is turned into a signal by an enzyme label.

Assay [5] concerns the target T4, monkey CD73 on CHOK1-cynoCD73 cells (monkey, UniProt A0A2K5V5U7 27-549, GPI anchor at the C-terminus of the mature chain (paragraph 3 says CD73 is GPI-anchored). The propeptide 550-574 is removed.).
T4 construct: also called CHOK1-cyno73 cells; monkey CD73 positive cells
T4 sequence: T1 sequence (looked up) with M199T, T350A, V466I
As to the kind of experiment: flow cytometry on CHOK1-cynoCD73 cells. The source says:
The full length of monkey CD73 was constructed on a eukaryotic expression vector containing NEO resistance, CHO-K1 cells were transfected, G418 was used for screening to obtain a CHOK1-cynoCD73 cell strain.

In assay [6] the target is T3, recombinant monkey CD73 protein. As to the kind of experiment: ELISA, plate coated with recombinant monkey CD73 at 3 µg/mL.
Text: as §1

Assay [7] concerns the target T2, recombinant human CD73 protein. As to the kind of experiment: ELISA, recombinant human CD73 coated at 3 ug/mL.
Assay [8] deals with T4, monkey CD73 on CHOK1-cynoCD73 cells. As to the kind of experiment: flow cytometry on CHOK1-cynoCD73 cells. The source holds these as a separate data set.
For assay [9], the target named is T3, recombinant monkey CD73 protein. As to the kind of experiment: ELISA, recombinant monkey CD73.
Assay [10] addresses T1, human CD73 on SK-OV-3 cells (human …). As to the kind of experiment: flow cytometry on SK-OV-3 cells. This is another data set of the same source.
The target in assay [11] is T2, recombinant human CD73 protein. As to the kind of experiment: ELISA, recombinant human CD73.
For assay [12], the target named is T4, monkey CD73 on CHOK1-cynoCD73 cells. As to the kind of experiment: flow cytometry on CHOK1-cynoCD73 cells. The source holds these as a separate data set.
The target of assay [13] is T1, human CD73 on SK-OV-3 cells (human …). As to the kind of experiment: flow cytometry on SK-OV-3 cells, anti-hFc-APC. This is another data set of the same source.
Assay [14] concerns the target T2, recombinant human CD73 protein. As to the kind of experiment: ELISA, recombinant human CD73 coated at 3 ug/mL. The source holds these as a separate data set.
The target in assay [15] is T3, recombinant monkey CD73 protein. As to the kind of experiment: ELISA, recombinant monkey CD73 coated at 3 ug/mL. This is another data set of the same source.

B1: humanized CQ137 monoclonal antibody (137-3) (antibody, V domains shown)
VH: QVQLVQSGAEVKKPGSSVKVSCKASGYSFTGYYIHWVRQAPGQGLEWMGRINPYNGATTYNQNFKDRVTITVDKSTSTAYMELSSLRSEDTAVYYCARFHYGAPDYWGQGTLVTVSS
VL: DIQMTQSPSSLSASVGDRVTITCKASQDINTYLTWYQQKPGKAPKTLIYRANILVDGVPSRFSGSGSGTDFTLTISSLQPEDFATYYCLQYDEFPLTFGGGTKVEIKR
As usually defined, the EC50 is the concentration that produces a half-maximal response. For orientation: EC50 (read off the curve) means the concentration giving half of the maximal effect. Consider B1, for which the EC50 in assay [1] was 7.03 µg/mL; in [2] it was 0.331 µg/mL; in assay [5], 0.0403 µg/mL; in [6], 0.202 µg/mL. Moreover, the “EC50 (read off the curve)” value in assay [3] is roughly 0.003 µg/mL; in assay [4], roughly 0.2 µg/mL; in [5], roughly 0.04 µg/mL; in [7] it was roughly 0.3 µg/mL.

B2: humanized CQ137 monoclonal antibody (137-1) (antibody, V domains shown)
VH: B1 VH with S16A, S28T, I70M, S84R, E89D
VL: B1 VL with Y36F, T69Q, F71Y
Take B2: the EC50 in assay [1] worked out at 2.13 µg/mL; in assay [2] it was 0.258 µg/mL; in assay [5], 0.0862 µg/mL; in assay [6], 3.76 µg/mL. Also, the “EC50 (read off the curve)” value is roughly 0.002 µg/mL in assay [3], roughly 0.09 µg/mL in assay [5] and roughly 0.3 µg/mL in assay [7].

B3: humanized CQ137 monoclonal antibody (137-7) (antibody, V domains shown)
VH: B1 VH with D105N
VL: B1 VL with E93D
With B3, the half-maximal effective concentration (EC50 (read off the curve)) in assay [8] was roughly 0.02 µg/mL. Moreover, the EC50 in assay [9] amounted to 6.57 µg/mL; in [10], 0.0301 µg/mL; in assay [11], 0.5 µg/mL; in [12], 0.0239 µg/mL.

B4: humanized CQ137 monoclonal antibody (137-9) (antibody, V domains shown)
VH: B1 VH with Y106L
VL: B1 VL with E93A
B4: the “EC50 (read off the curve)” value in assay [13] is roughly 0.03 µg/mL; in assay [8], roughly 0.02 µg/mL; in assay [14], roughly 0.4 µg/mL. The EC50 in assay [9] worked out at 3.76 µg/mL; in assay [10], 0.0331 µg/mL; in assay [11] it was 0.446 µg/mL; in assay [12] it was 0.0193 µg/mL.

B5: humanized CQ137 monoclonal antibody (137-4) (antibody, V domains shown)
VH: B1 VH with P104V
VL: B1 VL with D92E
On to B5, for which the “EC50 (read off the curve)” value in assay [13] was roughly 0.003 µg/mL; in assay [8], roughly 0.008 µg/mL; in [14] it was roughly 0.3 µg/mL; in assay [15], roughly 0.4 µg/mL. Further, the EC50 in assay [9] was 0.352 µg/mL; in assay [10] it was 0.00307 µg/mL; in assay [11], 0.262 µg/mL; in assay [12], 0.00831 µg/mL.

B6: humanized CQ137 monoclonal antibody (137-2) (antibody, V domains shown)
VH: B1 VH with S16A, I70M, S84R, E89D
VL: B1 VL with Y36F, T46S
For the molecule B6, the EC50 was found to be 3.26 µg/mL in assay [1], 0.275 µg/mL in assay [2], 0.0233 µg/mL in assay [5] and 0.313 µg/mL in assay [6]. Further, the “EC50 (read off the curve)” value in assay [3] is roughly 0.007 µg/mL; in assay [4] it was roughly 0.3 µg/mL; in assay [5] it was roughly 0.02 µg/mL; in [7], roughly 0.3 µg/mL.

B7: humanized CQ137 monoclonal antibody (137-5) (antibody, V domains shown)
VH: B1 VH with P104A
VL: B1 VL with D92N
Regarding B7, the half-maximal effective concentration (EC50 (read off the curve)) in assay [13] and in assay [8] was roughly 0.02 µg/mL each time. The half-maximal effective concentration (EC50) was 0.734 µg/mL in assay [9], 0.0234 µg/mL in [10], 0.387 µg/mL in [11] and 0.0154 µg/mL in [12].

B8: humanized CQ137 monoclonal antibody (137-8) (antibody, V domains shown)
VH: B1 VH with Y106F
VL: B1 VL with E93Q
For the molecule B8, the concentration for a half-maximal effect (EC50 (read off the curve)) in assay [13] was roughly 0.005 µg/mL; in assay [8], roughly 0.008 µg/mL; in assay [14] it was roughly 0.3 µg/mL. Also, the EC50 in [9] came out at 3.76 µg/mL; in [10] it was 0.00487 µg/mL; in assay [11], 0.312 µg/mL; in assay [12], 0.00782 µg/mL.

B9: humanized CQ137 monoclonal antibody (137-6) (antibody, V domains shown)
VH: B1 VH with D105E
VL: B1 VL with D92A
For the molecule B9, the “EC50 (read off the curve)” value in assay [13] was roughly 0.004 µg/mL; in assay [8], roughly 0.008 µg/mL; in [14], roughly 0.3 µg/mL; in [15] it was roughly 0.3 µg/mL. For the same molecule, the concentration for a half-maximal effect (EC50) in [9] was found to be 0.315 µg/mL; in assay [10], 0.00371 µg/mL; in [11], 0.267 µg/mL; in assay [12] it was 0.00769 µg/mL.

These data come from patent US20240174763A1 (NOVOPROTEIN SCIENTIFIC, published 2024).
